Patent US20170326246A1 (INSTITUT PASTEUR, published 2017)
*1 amine or outer side, *2 acyl side, *3 side chain or, on linkers, in order; H or OH if unused. [ ]: non-standard residue; d: D form. U1 = 4-cyclohexylmethoxy-L-phenylalanine, O=C([C@H](Cc1ccc(OCC2CCCCC2)cc1)N[*:1])[*:2]; Bip = N[C@@H](Cc1ccc(-c2ccccc2)cc1)C(=O)O; Tpa = thiopropionic acid

What was measured:
Assay in all cases: cell-based or functional assay
[1] = target: gp120 of viral strain SHIV162p3 (SHIV162p3)
[2] = target: gp120 of viral strain VI820 (HIV, strain VI820)
[3] = target: gp120 of viral strain pREJO.c/2864 cl2 (HIV, strain pREJO.c/2864 cl2)
[4] = target: gp120 of viral strain VI824 (HIV, strain VI824)
[5] = target: gp120 of viral strain SF162 (HIV, strain SF162, UniProt P19550 32-502)
[6] = target: gp120 of viral strain MN (HIV, strain MN, UniProt P05877 32-513)
[7] = target: gp120 of viral strain VI1888 (CRF01) (HIV, strain VI1888 (CRF01))
[8] = target: gp120 of viral strain Ca10-3 (CRF01) (HIV, strain Ca10-3 (CRF01))
[9] = target: gp120 of viral strain MP568 (CRF02) (HIV, strain MP568 (CRF02))
[10] = target: gp120 of viral strain p246F10 (HIV, strain p246F10)
[11] = target: gp120 of viral strain Bal (HIV, strain Bal)
[12] = target: gp120 of viral strain IIIB (HIV, strain IIIB)
[13] = target: gp120 of viral strain VI829 (HIV, strain VI829)

Binder | EC50 (antiviral activity, TZM-bl cells, luciferase) [1] [nM] | EC50 (antiviral activity, TZM-bl cells, luciferase) [2] [nM] | EC50 (antiviral activity, TZM-bl cells, luciferase) [3] [nM] | EC50 (antiviral activity, TZM-bl cells, luciferase) [4] [nM] | EC50 (antiviral activity, TZM-bl cells, luciferase) [5] [nM] | EC50 (antiviral activity, TZM-bl cells, luciferase) [6] [nM] | EC50 (antiviral activity, TZM-bl cells, luciferase) [7] [nM] | EC50 (antiviral activity, TZM-bl cells, luciferase) [8] [nM] | EC50 (antiviral activity, TZM-bl cells, luciferase) [9] [nM] | EC50 (antiviral activity, TZM-bl cells, luciferase) [10] [nM] | EC50 (antiviral activity, TZM-bl cells, luciferase) [11] [nM] | EC50 (antiviral activity, TZM-bl cells, luciferase) [12] [nM] | EC50 (antiviral activity, TZM-bl cells, luciferase) [13] [nM]
mCD4.1-PS1 (N-terminal gamma-aminobutyric acid (gammaAbu) acylated with 3-thiopropionyl (from SATP); all six Tyr are sulfotyrosine (YSO3); N-terminal Tpa (thiopropionic acid); Bip at position 23; C-terminal …; Lys5 N-epsilon carries the PEO2-maleimide linker bound to the thiol of the PS1 chain) peptide 1: NLHKCQLRCSSLGLLGRCAGSFCACV peptide 2: SYDYSYDYSYDYS | 36 | 25 | 0.66 | 40 | 0.11 | 0.08 | 1100 | 0.57 | 310 | 723 | 0.54 | 0.013 | 16
Tpa-NLHKCQLRCRSLGLLGRCA[dP]T[U1]CACV-NH2 (disulfide (positions not given here)) [mCD4.3] | 29 | 4.2 | 46 | 39 | 0.66 | 0.37 | 8020 | 3.1 | 204 | 510 | 2.3 | 0.16 | 221
Tpa-NLHFCQLRCKSLGLLGRCA[dP]T[U1]CACV-NH2 (disulfide (positions not given here)) [M48U1] | 24 | 3.8 |  | 29 | 1 | 0.25 | 8420 | 2.7 | 129 |  | 0.96 | 0.08 | 59
Tpa-NLHKCQLRCSSLGLLGRCA[dP]T[U1]CACV-NH2 (disulfide (positions not given here)) [mCD4.2] | 69 | 6.1 | 76 | 56 | 1.24 | 0.6 | 9760 | 4.73 | 155 | 718 | 2 | 0.22 | 512
M48U1-PS1 (not fully specified; N-terminal gamma-aminobutyric acid (gammaAbu) acylated with 3-thiopropionyl (from SATP); all six Tyr are sulfotyrosine (YSO3); N-terminal Tpa; D-proline at position 21; U1 (4-cyclohexylmethoxy-L-phenylalanine) at position 23; C-terminal amide; Lys11 N-epsilon carries the PEO2-maleimide linker bound to the thiol of the PS1 chain) peptide 1: NLHFCQLRCKSLGLLGRCAPTFCACV peptide 2: SYDYSYDYSYDYS | 3.4 | 0.1 |  | 2.2 | 0.05 | 0.12 | 1070 | 0.6 | 15 |  | 0.13 | 0.02 | 1.1
mCD4.2-PS1 (not fully specified; N-terminal gamma-aminobutyric acid (gammaAbu) acylated with 3-thiopropionyl (from SATP); all six Tyr are sulfotyrosine (YSO3); N-terminal Tpa; D-proline at position 21; U1 (4-cyclohexylmethoxy-L-phenylalanine) at position 23; C-terminal amide; Lys5 N-epsilon carries the PEO2-maleimide linker bound to the thiol of the PS1 chain) peptide 1: NLHKCQLRCSSLGLLGRCAPTFCACV peptide 2: SYDYSYDYSYDYS | 2.2 | 0.031 | 0.27 | 0.68 | 0.01 | 0.046 | 1060 | 0.12 | 4.9 | 58 | 0.034 | 0.007 | 4
mCD4.3-PS1 (not fully specified; N-terminal gamma-aminobutyric acid (gammaAbu) acylated with 3-thiopropionyl (from SATP); all six Tyr are sulfotyrosine (YSO3); N-terminal Tpa; D-proline at position 21; U1 (4-cyclohexylmethoxy-L-phenylalanine) at position 23; C-terminal amide; Lys5 N-epsilon carries the PEO2-maleimide linker bound to the thiol of the PS1 chain) peptide 1: NLHKCQLRCRSLGLLGRCAPTFCACV peptide 2: SYDYSYDYSYDYS | 1.4 | 0.024 | 0.28 | 0.7 | 0.008 | 0.026 | 1210 | 0.076 | 4.2 | 33 | 0.031 | 0.0025 | 3.6
Tpa-NLHKCQLRCSSLGLLGRCAGS[Bip]CACV-NH2 (disulfide (positions not given here); also: three disulphide bridges, pairing not given here) [mCD4.1] | 5370 | 1690 | 108 | 3180 | 130 | 20 | > 1000 | 96 | 7930 | > 10000 | 236 | 29 | > 10000
